*: point of attachment. Biotin = O=C1N[C@H]2[C@H](CS[C@H]2CCCCC(=O)*)N1; Ahx = NCCCCCC(=O)O
Target: T1, recombinant, soluble extracellular b1b2 domain of human NRP1, wild type (residues 274-584) (human, UniProt O14786 274-584)
T1 sequence: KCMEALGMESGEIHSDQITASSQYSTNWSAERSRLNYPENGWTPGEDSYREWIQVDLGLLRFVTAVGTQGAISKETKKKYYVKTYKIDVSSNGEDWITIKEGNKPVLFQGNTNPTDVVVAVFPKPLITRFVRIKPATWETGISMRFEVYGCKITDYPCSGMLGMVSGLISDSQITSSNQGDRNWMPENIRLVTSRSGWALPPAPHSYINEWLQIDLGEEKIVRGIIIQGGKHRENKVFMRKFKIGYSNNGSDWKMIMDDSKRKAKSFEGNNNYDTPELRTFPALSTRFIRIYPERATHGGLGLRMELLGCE

## {Biotin-Ahx}-RPARPAR-OH (also: on silver nanoparticles) [biotin-Ahx-RPARPAR-OH, prototypic NRP1-binding CendR peptide, on silver nanoparticles (AgNP-CendR)]
  binding result: binds

Reference: article doi:10.1101/2020.06.07.137802 (bioRxiv, 2020)
